Experimental findings from patent US20220235109A1 (CUGENE, published 2022) are described below.

Assay [1] has as its target T1, IL-2Rβγ on human CD8+ T cells, NK cells and CD4+ T cells (human, UniProt P14784 27-551; P31785 23-369).
T1 sequence (looked up) 1: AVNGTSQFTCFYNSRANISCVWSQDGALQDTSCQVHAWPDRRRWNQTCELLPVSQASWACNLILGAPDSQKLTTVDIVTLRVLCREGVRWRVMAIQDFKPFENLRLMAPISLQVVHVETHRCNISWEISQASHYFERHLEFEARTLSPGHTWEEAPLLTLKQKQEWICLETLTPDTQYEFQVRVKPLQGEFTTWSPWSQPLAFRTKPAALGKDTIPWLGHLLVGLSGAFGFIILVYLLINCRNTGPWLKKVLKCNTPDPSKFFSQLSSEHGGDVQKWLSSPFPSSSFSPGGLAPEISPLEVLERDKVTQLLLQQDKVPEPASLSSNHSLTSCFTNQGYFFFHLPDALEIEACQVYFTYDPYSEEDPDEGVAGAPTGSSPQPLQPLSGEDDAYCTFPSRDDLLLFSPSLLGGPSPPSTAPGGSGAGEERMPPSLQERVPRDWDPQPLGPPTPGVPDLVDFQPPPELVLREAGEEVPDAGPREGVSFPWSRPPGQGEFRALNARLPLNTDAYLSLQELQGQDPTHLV
T1 sequence (looked up) 2: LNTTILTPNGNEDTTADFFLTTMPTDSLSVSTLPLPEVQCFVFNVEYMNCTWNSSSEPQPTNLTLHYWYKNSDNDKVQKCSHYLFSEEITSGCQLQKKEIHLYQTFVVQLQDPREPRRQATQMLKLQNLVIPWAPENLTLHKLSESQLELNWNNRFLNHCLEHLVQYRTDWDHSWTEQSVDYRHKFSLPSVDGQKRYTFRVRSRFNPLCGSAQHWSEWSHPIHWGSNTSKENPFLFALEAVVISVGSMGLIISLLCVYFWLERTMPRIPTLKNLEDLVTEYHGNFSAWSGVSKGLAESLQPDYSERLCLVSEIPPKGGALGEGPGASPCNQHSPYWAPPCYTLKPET
As to the kind of experiment: cell-based or functional assay.

The target in another assay is T2, IL-2Rα-ECD (human, UniProt P01589 22-240).
T2 construct: coated on ELISA plates at 0.1 µg/well; also called CD25; receptor subunit α
T2 sequence: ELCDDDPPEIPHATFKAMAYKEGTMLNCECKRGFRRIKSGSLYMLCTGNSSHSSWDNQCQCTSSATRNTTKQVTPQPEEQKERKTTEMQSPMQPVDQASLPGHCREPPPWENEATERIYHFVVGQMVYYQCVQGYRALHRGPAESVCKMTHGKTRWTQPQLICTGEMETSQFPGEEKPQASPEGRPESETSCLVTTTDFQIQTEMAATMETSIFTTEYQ
In words: ELISA, IL-2Rα-ECD coated. As to the method:
A panel of IL-2 muteins was expressed as C-terminal fusions to the Fc homodimer of Fc heterodimer and screened for binding to IL-2Rα in enzyme-linked immunosorbent assay (ELISA). Briefly, IL-2Rα-ECD (SEQ ID NO: 5) was coated onto the wells of Nunc Maxisorp 96-well microplates at 0.1 μg/well. After overnight incubation at 4° C. and blocking with superblock (Thermo Fisher), 3-fold serial dilutions of IL-2 Fc fusion proteins starting at 100 nM were added to each well at 100 μI/well. Following one-hour incubation at room temperature, 100 μl/well of goat anti-human IgG Fc-HRP (1:5000 diluted in diluent) were added to each well and incubated at room temperature for 1 hour. Wells were thoroughly aspirated and washed three times with PBS/0.05% Tween-20 following each step. Finally, 100 μl TMB substrate was added to each well; the plate was developed at room temperature in the dark for 10 minutes, and 100 μl/well of stop solution (2N Sulfuric acid, Ricca Chemical) was added. Absorbance was determined at 450 nm and curves were fit using Prism software (Graph Pad).

In assay [2] the target is T3, IL-2Rα (CD25) on human CD4+ Treg cells (human, UniProt P01589 22-272).
T3 sequence (looked up): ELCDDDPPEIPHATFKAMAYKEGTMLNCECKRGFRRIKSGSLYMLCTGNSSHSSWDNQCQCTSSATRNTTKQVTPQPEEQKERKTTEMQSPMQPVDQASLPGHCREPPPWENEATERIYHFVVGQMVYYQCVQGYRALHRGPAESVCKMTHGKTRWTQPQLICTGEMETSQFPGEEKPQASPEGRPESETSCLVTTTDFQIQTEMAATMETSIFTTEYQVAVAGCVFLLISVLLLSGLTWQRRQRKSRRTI
In words: cell-based or functional assay.

B1: P-0732 (Fc fusion)
chain: DKTHTCPPCPAPEAAGAPSVFLFPPKPKDTLMISRTPEVTCVVVDVSHEDPEVKFNWYVDGVEVHNAKTKPREEQYNSTYRVVSVLTVLHQDWLNGKEYKCKVSNKALPAPIEKTISKAKGQPREPQVCTLPPSREEMTKNQVSLWCLVKGFYPSDIAVEWESNGQPENNYKTTPPVLDSDGSFFLYSKLTVDKSRWQQGNVFSCSVMHEALHNHYTQKSLSLSPGGGGSGGGSAPTSSSTKKTQLQLEHLLLDLQMILNGINNYKNPKLTRMLTFKFYMPKKATELKHLQCLEEELKRLEEVLNLAQSKNFHLRPRDLISNINVIVLELKGSETTFMCEYADETATIVEFLNRWITFIESIISTLT
Fc: DKTHTCPPCPAPEAAGAPSVFLFPPKPKDTLMISRTPEVTCVVVDVSHEDPEVKFNWYVDGVEVHNAKTKPREEQYNSTYRVVSVLTVLHQDWLNGKEYKCKVSNKALPAPIEKTISKAKGQPREPQVYTLPPCREEMTKNQVSLSCAVKGFYPSDIAVEWESNGQPENNYKTTPPVLDSDGSFFLVSKLTVDKSRWQQGNVFSCSVMHEALHNHYTQKSLSLSPG
Regarding B1, in assay [1], the “Ki67 expression on human CD8+ T cells (EC50 against P-0704)” value is greater than 100 fold.

B2: P-0766 (Fc fusion)
chain 1: DKTHTCPPCPAPEAAGAPSVFLFPPKPKDTLMISRTPEVTCVVVDVSHEDPEVKFNWYVDGVEVHNAKTKPREEQYNSTYRVVSVLTVLHQDWLNGKEYKCKVSNKALPAPIEKTISKAKGQPREPQVCTLPPSREEMTKNQVSLWCLVKGFYPSDIAVEWESNGQPENNYKTTPPVLDSDGSFFLYSKLTVDKSRWQQGNVFSCSVMHEALHNHYTQKSLSLSPGGGGSGGGSAPTSSSTKKTQLQLEHLLLDLQMILNGINNYKNPKLTRMLTAKFYMPKKATELKHLQCLEEALKPLEEVLNLAQSKNFHLRPRDLISNINVIVLELKGSETTFMCEYADETATIVEFLNRWITFIQSIISTLT
chain 2: DKTHTCPPCPAPEAAGAPSVFLFPPKPKDTLMISRTPEVTCVVVDVSHEDPEVKFNWYVDGVEVHNAKTKPREEQYNSTYRVVSVLTVLHQDWLNGKEYKCKVSNKALPAPIEKTISKAKGQPREPQVYTLPPCREEMTKNQVSLSCAVKGFYPSDIAVEWESNGQPENNYKTTPPVLDSDGSFFLVSKLTVDKSRWQQGNVFSCSVMHEALHNHYTQKSLSLSPG
notes: knob chain carries the IL-2 variant; hole-Fc; monovalent; also called IL-2 F42A/E62A/S125I monovalent Fc fusion
In the case of B2, in the assay with IL-2Rα-ECD, the “Binding EC50 vs P-0689” value is > 500 fold (ratio of EC50s) and the binding result is listed as “no binding”.

B3: P-0765 (Fc fusion)
chain 1: DKTHTCPPCPAPEAAGAPSVFLFPPKPKDTLMISRTPEVTCVVVDVSHEDPEVKFNWYVDGVEVHNAKTKPREEQYNSTYRVVSVLTVLHQDWLNGKEYKCKVSNKALPAPIEKTISKAKGQPREPQVCTLPPSREEMTKNQVSLWCLVKGFYPSDIAVEWESNGQPENNYKTTPPVLDSDGSFFLYSKLTVDKSRWQQGNVFSCSVMHEALHNHYTQKSLSLSPGGGGSGGGSAPTSSSTKKTQLQLEHLLLDLQMILNGINNYKNPKLTRMLTAKFYMPKKATELKHLQCLEEELKALEEVLNLAQSKNFHLRPRDLISNINVIVLELKGSETTFMCEYADETATIVEFLNRWITFIQSIISTLT
chain 2: DKTHTCPPCPAPEAAGAPSVFLFPPKPKDTLMISRTPEVTCVVVDVSHEDPEVKFNWYVDGVEVHNAKTKPREEQYNSTYRVVSVLTVLHQDWLNGKEYKCKVSNKALPAPIEKTISKAKGQPREPQVYTLPPCREEMTKNQVSLSCAVKGFYPSDIAVEWESNGQPENNYKTTPPVLDSDGSFFLVSKLTVDKSRWQQGNVFSCSVMHEALHNHYTQKSLSLSPG
notes: knob chain carries the IL-2 variant; hole-Fc; monovalent; also called IL-2 F42A/P65A/S125I monovalent Fc fusion
With B3, the “Binding EC50 vs P-0689” value with IL-2Rα-ECD is 6.8 fold (ratio of EC50s).

B4: P-0767 (Fc fusion)
chain 1: DKTHTCPPCPAPEAAGAPSVFLFPPKPKDTLMISRTPEVTCVVVDVSHEDPEVKFNWYVDGVEVHNAKTKPREEQYNSTYRVVSVLTVLHQDWLNGKEYKCKVSNKALPAPIEKTISKAKGQPREPQVCTLPPSREEMTKNQVSLWCLVKGFYPSDIAVEWESNGQPENNYKTTPPVLDSDGSFFLYSKLTVDKSRWQQGNVFSCSVMHEALHNHYTQKSLSLSPGGGGSGGGSAPTSSSTKKTQLQLEHLLLDLQMILNGINNYKNPKLTRMLTAKFYMPKKATELKHLQCLEEHLKPLEEVLNLAQSKNFHLRPRDLISNINVIVLELKGSETTFMCEYADETATIVEFLNRWITFIQSIISTLT
chain 2: DKTHTCPPCPAPEAAGAPSVFLFPPKPKDTLMISRTPEVTCVVVDVSHEDPEVKFNWYVDGVEVHNAKTKPREEQYNSTYRVVSVLTVLHQDWLNGKEYKCKVSNKALPAPIEKTISKAKGQPREPQVYTLPPCREEMTKNQVSLSCAVKGFYPSDIAVEWESNGQPENNYKTTPPVLDSDGSFFLVSKLTVDKSRWQQGNVFSCSVMHEALHNHYTQKSLSLSPG
notes: knob chain carries the IL-2 variant; hole-Fc; monovalent; also called IL-2 F42A/E62H/S125I monovalent Fc fusion
B4: in the assay with IL-2Rα-ECD, the “Binding EC50 vs P-0689” value was > 500 fold (ratio of EC50s) and the binding result is given as “no binding”.

B5: P-0837 (antibody, mouse IgG1, kappa)
heavy 1: EVQLQESGPGLVKPSQSLSLTCSVTGYSITSSYRWNWIRKFPGNRLEWMGYINSAGISNYNPSLKRRISITRDTSKNQFFLQVNSVTTEDAATYYCARSDNMGTTPFTYWGQGTLVTVSSAKTTPPSVYPLAPGSAAQTNSMVTLGCLVKGYFPEPVTVTWNSGSLSSGVHTFPAVLQSDLYTLSSSVTVPSSTWPSQTVTCNVAHPASSTKVDKKIVPRDCGCKPCICTVPEVSSVFIFPPKPKDVLTITLTPKVTCVVVAISKDDPEVQFSWFVDDVEVHTAQTKPREEQINSTFRSVSELPIMHQDWLNGKEFKCRVNSAAFGAPIEKTISKTKGRPKAPQVYTIPPPKKQMAKDKVSLTCMITNFFPEDITVEWQWNGQPAENYKNTQPIMKTDGSYFVYSKLNVQKSNWEAGNTFTCSVLHEGLHNHHTEKSLSHSPG
heavy 2: not shown
light: DIVMTQGTLPNPVPSGESVSITCRSSKSLLYSDGKTYLNWYLQRPGQSPQLLIYWMSTRASGVSDRFSGSGSGTDFTLKISGVEAEDVGIYYCQQGLEFPTFGGGTKLELKRTDAAPTVSIFPPSSEQLTSGGASVVCFLNNFYPRDINVKWKIDGSERQNGVLNSWTDQDSKDSTYSMSSTLTLTKDEYERHNSYTCEATHKTSTSPIVKSFNRNEC
For B5, the “pSTAT5 EC50 in Treg cells (human PBMC)” value in assay [2] stood at 0.45 pM.

B6: P-0838 (antibody, mouse IgG1, kappa)
heavy 1: EVQLQESGPGLVKPSQSLSLTCSVTGYSITSSYRWNWIRKFPGNRLEWMGYINSAGISNYNPSLKRRISITRDTSKNQFFLQVNSVTTEDAATYYCARSDNMGTTPFTYWGQGTLVTVSSAKTTPPSVYPLAPGSAAQTNSMVTLGCLVKGYFPEPVTVTWNSGSLSSGVHTFPAVLQSDLYTLSSSVTVPSSTWPSQTVTCNVAHPASSTKVDKKIVPRDCGCKPCICTVPEVSSVFIFPPKPKDVLTITLTPKVTCVVVAISKDDPEVQFSWFVDDVEVHTAQTKPREEQINSTFRSVSELPIMHQDWLNGKEFKCRVNSAAFGAPIEKTISKTKGRPKAPQVYTIPPPKKQMAKDKVSLTCMITNFFPEDITVEWQWNGQPAENYKNTQPIMKTDGSYFVYSKLNVQKSNWEAGNTFTCSVLHEGLHNHHTEKSLSHSPG
heavy 2: not shown
light: DIVMTQGTLPNPVPSGESVSITCRSSKSLLYSDGKTYLNWYLQRPGQSPQLLIYWMSTRASGVSDRFSGSGSGTDFTLKISGVEAEDVGIYYCQQGLEFPTFGGGTKLELKRTDAAPTVSIFPPSSEQLTSGGASVVCFLNNFYPRDINVKWKIDGSERQNGVLNSWTDQDSKDSTYSMSSTLTLTKDEYERHNSYTCEATHKTSTSPIVKSFNRNEC
Consider B6, for which, in assay [2], the “pSTAT5 EC50 in Treg cells (human PBMC)” value worked out at 0.36 nM and the “pSTAT5 EC50 in Treg cells, fold against P-0837” value was 800 fold. Besides, the “pSTAT5 EC50 in CD8+ T cells (human PBMC)” value in assay [1] was determined as 4.6 nM.
